This passage reports IC50, IL-3 dependent growth of TF1 cells results from patent publication US20180371075A1.

For this experiment, the target named is human IL-3 expressed by E. coli (Peprotech), non-glycosylated (human) (UniProt P08700). Briefly: cell-based or functional assay.
UniProt P08700, sequence (P08700 28-152, tags or fused parts left off): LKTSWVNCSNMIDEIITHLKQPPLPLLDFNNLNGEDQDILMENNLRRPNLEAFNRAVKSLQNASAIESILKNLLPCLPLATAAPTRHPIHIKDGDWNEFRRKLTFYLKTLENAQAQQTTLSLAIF

“R&D monoclonal anti-IL-3 antibody clone 4806 (R&D Systems, Inc., catalogue No. MAB203)”: the IC50, IL-3 dependent growth of TF1 cells turned out to be 0.033 mg/L.
